Laboratory results from ChEMBL document CHEMBL5233245, “Monocarboxylate transporter 1 and 4 inhibitors as potential therapeutics for treating solid tumours: A review with structure-activity relationship insights” (Eur J Med Chem, 2020).

Columns and labels:
[1] = substrate: C[C@H](O)C(=O)O; assay: Substrate activity at chicken MCT3 expressed in yeast assessed as Km incubated for 3 mins by Michaelis-Menten analysis; details: Gallus gallus
[2] = substrate: C[C@H](O)C(=O)O; assay: (§1) Substrate activity at rat MCT2 expressed in Xenopus laevis oocytes assessed as Km by Michaelis-Menten analysis; assay type: cell-based; details: Oocyte
[3] = substrate: CC(=O)C(=O)O; assay: as §1; assay type: cell-based; details: Oocyte
[4] = substrate: C[C@H](O)C(=O)O; assay: (§2) Substrate activity at rat MCT1 expressed in Xenopus laevis oocytes assessed as Km; assay type: cell-based; details: Oocyte
[5] = substrate: C[C@@H](O)C(=O)O; assay: as §2; assay type: cell-based; details: Oocyte
[6] = substrate: CCC(=O)C(=O)O; assay: as §2; assay type: cell-based; details: Oocyte
[7] = substrate: C[C@H](O)C(=O)O; assay: (§3) Substrate activity at rat MCT4 expressed in Xenopus laevis oocytes assessed as Km; assay type: cell-based; details: Oocyte
[8] = substrate: CCC(=O)C(=O)O; assay: as §3; assay type: cell-based; details: Oocyte
[9] = substrate: CC(C)(OCc1nn(Cc2ccccc2)c2ccccc12)C(=O)O; details: Homo sapiens; Oocyte; time 10.0 min

B1: Monocarboxylate transporter 3 (Gallus gallus), Q90632 (protein)
chain: MGRADPEEGQLPAPVKPPDGGWGWIVLFGCFVITGFSYAFPKAVSVYFKELMKDFHVGYSDTAWISSIMLAMLYGTGPVCSIMVNQFGCRPVMLIGGLLASSGMILASFTTNIIELYLTAGVLTGLGMALNFQPSLIMLGTYFDKRRPLANGLAAAGSPVFLSSLSPLGQVLLEKFGWRGGFLIMGGLLLNCCTCGAVMRPLDAGMKRKTEKAQDKYEAKEMLPMGGKSEEGISTTDGTKKTKKAKKKPKKGKKLLDFSIFSNRGFIIYTISKFILVLGLFVPPILLVNYAKDTGVPDTEAAFLLSIIGFIDIFARPACGMVAGLKWVRPHVAYLFSFAMLFNGLTDICSARASNYTGLVIFCVFFGISYGMVGALQFEVLMAIVGSQKFSSAIGLVLLIEAFAVLIGPPSAGRLVDALKNYEVIFYLAGSEVVLSALFLAMATYCCLNRGKKTPPPEKNPSAGGGSDTEEAESDVQEAEEHSSDNHQPAHGTDKATVAANEEANHVEDEQSGEGGRCPEADGEVSSRAGCNADQTVERDSF
Km [1]: 6 mM

B2: Monocarboxylate transporter 2 (Rattus norvegicus), Q63344 (protein)
chain: MPSESSVKATAAPPPFPLPPDGGWGWVVVCASFISIGFSYAFPKAVTVFFNDIKDIFKTTSSQIAWISSIMLAVMYAGGPISSVLVNNYGSRPVVIVGGLLCCTGMILASFSSSVIELYLTVGFIGGLGLAFNLQPALTIIGKYFYRKRPLANGFAMAGSPVFLSTLAPFNQFLFNSYGWKGSFLILGAIFLHSCVAGCLMRPVGPSPRAAKSKSKVGSRQDSSTKRLSKVSTAEKINRFLDFGLFTHRGFLIYLSGNVVLFLGMFAPIIFLAPYAKDKGVDDYNSAFLLSVMAFTDMFARPSVGLIANTSLIRPRIQYLFSVAIMFTGICHLLCPLAHSYTALVVYVIFFGIGFGSISSLLFECLMDQVGASRFSSAVGLVTIVECCPVLFGPPLAGKLLDITGQYKYLYIASGIVVLSSGIYLLICNAINYRLLEKERKREKARRKKSASQASKEMEALSRSKQDDVTVKVSNTHNPPSDRDKESSI
Km [2]: 0.75 mM
Km [3]: 0.08 mM

B3: Monocarboxylate transporter 1 (Rattus norvegicus), P53987 (protein)
chain: MPPAIGGPVGYTPPDGGWGWAVVVGAFISIGFSYAFPKSITVFFKEIEIIFSATTSEVSWISSIMLAVMYAGGPISSILVNKYGSRPVMIAGGCLSGCGLIAASFCNTVQELYFCIGVIGGLGLAFNLNPALTMIGKYFYKKRPLANGLAMAGSPVFLSTLAPLNQAFFGIFGWRGSFLILGGLLLNCCVAGSLMRPIGPQQGKVEKLKSKESLQEAGKSDANTDLIGGSPKGEKLSVFQTVNKFLDLSLFTHRGFLLYLSGNVVMFFGLFTPLVFLSNYGKSKHFSSEKSAFLLSILAFVDMVARPSMGLAANTRWIRPRVQYFFAASVVANGVCHLLAPLSTTYVGFCIYAGVFGFAFGWLSSVLFETLMDLVGPQRFSSAVGLVTIVECCPVLLGPPLLGRLNDMYGDYKYTYWACGVILIIAGLYLFIGMGINYRLVAKEQKAEEKKRDGKEDETSTDVDEKPKKTMKETQSPAPLQNSSGDPAEEESPV
Km [4]: 3.5 mM
Km [5]: > 60 mM
Km [6]: 0.2 mM

B4: Monocarboxylate transporter 4 (Rattus norvegicus), O35910 (protein)
chain: MGGAVVDEGPTGIKAPDGGWGWAVLFGCFIITGFSYAFPKAVSVFFKELMHEFGIGYSDTAWISSILLAMLYGTGPLCSMCVNRFGCRPVMLVGGLFASLGMVAASFCRSIIQIYLTTGVITGLGLALNFQPSLIMLNRYFNKRRPMANGLAAAGSPVFLCALSPLGQLLQDHYGWRGGFLILGGLLLNCCVCAALMRPLVAPQASGGAEPHGPQRPSPRLLDLSVFRDRGFLIYAVAASIMVLGLFVPPVFVVSYAKDMGVPDTKAAFLLTILGFIDIFARPTAGFITGLKKVRPYSVYLFSFAMFFNGFTDLTGSTASDYGGLVVFCIFFGISYGMVGALQFEVLMAIVGTQKFSSAIGLVLLLEAVAVLIGPPSGGKLLDATKVYKYVFILAGAEVLTSSLVLLLGNFFCIGKRKRPEVTKPEEVASEEEKLHKPPVDVRVDSREVEHFLKAEPEKNGEVVHTPETSV
Km [7]: 22 mM
Km [8]: 57 mM

B5: Monocarboxylate transporter 4 (Homo sapiens), O15427 (protein)
chain: MGGAVVDEGPTGVKAPDGGWGWAVLFGCFVITGFSYAFPKAVSVFFKELIQEFGIGYSDTAWISSILLAMLYGTGPLCSVCVNRFGCRPVMLVGGLFASLGMVAASFCRSIIQVYLTTGVITGLGLALNFQPSLIMLNRYFSKRRPMANGLAAAGSPVFLCALSPLGQLLQDRYGWRGGFLILGGLLLNCCVCAALMRPLVVTAQPGSGPPRPSRRLLDLSVFRDRGFVLYAVAASVMVLGLFVPPVFVVSYAKDLGVPDTKAAFLLTILGFIDIFARPAAGFVAGLGKVRPYSVYLFSFSMFFNGLADLAGSTAGDYGGLVVFCIFFGISYGMVGALQFEVLMAIVGTHKFSSAIGLVLLMEAVAVLVGPPSGGKLLDATHVYMYVFILAGAEVLTSSLILLLGNFFCIRKKPKEPQPEVAAAEEEKLHKPPADSGVDLREVEHFLKAEPEKNGEVVHTPETSV
Km [9]: 2.8 mM
